Measurements from the Immune Epitope Database (IEDB).
pIC50, pKd: −log10 of the molar value.

Columns and labels:
HLA-B*53:01 [1] = assay: IEDB peptide-MHC binding, purified MHC/competitive/radioactivity; filed as Kd, often an IC50 or EC50 that approximates it; ≥ and ≤ were set here for values at or beyond the usual limits of such assays
HLA-B*35:01 [2] = assay: as above
HLA-B*51:01 [3] = assay: as above
HLA-B*07:02 [4] = assay: IEDB peptide-MHC binding, purified MHC/competitive/radioactivity; ≥ and ≤ were set here for values at or beyond the usual limits of such assays
HLA-B*54:01 [5] = assay: as above
HLA-B*51:01 [6] = assay: as above
HLA-B*07:02 [7] = assay: IEDB peptide-MHC binding, purified MHC/competitive/radioactivity; filed as Kd, often an IC50 or EC50 that approximates it; ≥ and ≤ were set here for values at or beyond the usual limits of such assays
HLA-B*53:01 [8] = assay: IEDB peptide-MHC binding, purified MHC/competitive/radioactivity; ≥ and ≤ were set here for values at or beyond the usual limits of such assays
HLA-B*35:01 [9] = assay: as above; conditions: source organism: Homo sapiens
HLA-B*54:01 [10] = assay: IEDB peptide-MHC binding, purified MHC/competitive/radioactivity; filed as Kd, often an IC50 or EC50 that approximates it; ≥ and ≤ were set here for values at or beyond the usual limits of such assays
[11] = source organism: human papillomavirus 11
[12] = source organism: Hepatitis C virus (isolate Taiwan)
[13] = source organism: Candida albicans
[14] = source organism: Human immunodeficiency virus type 1 (RF/HAT ISOLATE)
[15] = source organism: Human immunodeficiency virus 1

SPISNVANA showed a pKd (HLA-B*53:01 [1]; [11]) of no more than 4.60, a pKd (HLA-B*35:01 [2]; [11]) of no more than 4.60 and a pKd (HLA-B*51:01 [3]; [11]) of 5.26. For the same sequence, the pIC50 (HLA-B*07:02 [4]; [11]) was 6.18 and the pIC50 (HLA-B*54:01 [5]; [11]) was 7.25.
With VPLAHSSSA the pKd (HLA-B*53:01 [1]; source organism: Homo sapiens) was no more than 4.60, the pKd (HLA-B*35:01 [2]; source organism: Homo sapiens) was no more than 4.60 and the pIC50 (HLA-B*51:01 [6]; source organism: Homo sapiens) was 6.44. The pIC50 (HLA-B*07:02 [4]; source organism: Homo sapiens) was 6.76 and the pIC50 (HLA-B*54:01 [5]; source organism: Homo sapiens) was 7.64.
Work on TPAEVSIVV yielded a pKd (HLA-B*53:01 [1]; source organism: Homo sapiens) of 4.81, a pKd (HLA-B*35:01 [2]; source organism: Homo sapiens) of 5.67 and a pKd (HLA-B*07:02 [7]; source organism: Homo sapiens) of 5.82. It also gave a pIC50 (HLA-B*51:01 [6]; source organism: Homo sapiens) of 7.41 and a pIC50 (HLA-B*54:01 [5]; source organism: Homo sapiens) of 6.48.
LPSPACQLV was tested, and the pKd (HLA-B*53:01 [1]; source organism: Homo sapiens) was 5.15, the pKd (HLA-B*35:01 [2]; source organism: Homo sapiens) was no more than 4.60 and the pKd (HLA-B*07:02 [7]; source organism: Homo sapiens) was 5.10. The pIC50 (HLA-B*51:01 [6]; source organism: Homo sapiens) was 8.09 and the pIC50 (HLA-B*54:01 [5]; source organism: Homo sapiens) was 6.66.
In the case of YPCTVNFTI, the pKd (HLA-B*07:02 [7]; [12]) was 4.97, the pIC50 (HLA-B*53:01 [8]; [12]) was 6.99 and the pIC50 (HLA-B*51:01 [6]; [12]) was 7.92.
Work on MPREDAHFI yielded a pIC50 (HLA-B*53:01 [8]; source organism: Homo sapiens) of 8.18, a pIC50 (HLA-B*35:01 [9]) of 6.35 and a pIC50 (HLA-B*51:01 [6]; source organism: Homo sapiens) of 9.34. The pIC50 (HLA-B*54:01 [5]; source organism: Homo sapiens) was 6.53.
Work on FPRFKFVWV yielded a pKd (HLA-B*53:01 [1]; [13]) of 5.45, a pKd (HLA-B*35:01 [2]; [13]) of no more than 4.60 and a pIC50 (HLA-B*51:01 [6]; [13]) of 6.87. For the same sequence, the pIC50 (HLA-B*07:02 [4]; [13]) was 7.29 and the pIC50 (HLA-B*54:01 [5]; [13]) was 7.77.
For LPSIPVHPI, the pKd (HLA-B*35:01 [2]; source organism: Homo sapiens) was 5.53, the pIC50 (HLA-B*53:01 [8]; source organism: Homo sapiens) was 6.33 and the pIC50 (HLA-B*51:01 [6]; source organism: Homo sapiens) was 7.49. The pIC50 (HLA-B*07:02 [4]; source organism: Homo sapiens) was 7.17 and the pIC50 (HLA-B*54:01 [5]; source organism: Homo sapiens) was 7.42.
With LPFRNCPRF the pKd (HLA-B*07:02 [7]; source organism: Homo sapiens) was 5.95, the pIC50 (HLA-B*53:01 [8]; source organism: Homo sapiens) was 6.21 and the pIC50 (HLA-B*35:01 [9]) was 6.40. The pIC50 (HLA-B*51:01 [6]; source organism: Homo sapiens) was 7.85 and the pIC50 (HLA-B*54:01 [5]; source organism: Homo sapiens) was 6.57.
QPKKVKRRL gave a pKd (HLA-B*53:01 [1]; [11]) of no more than 4.60, a pKd (HLA-B*35:01 [2]; [11]) of no more than 4.60 and a pKd (HLA-B*51:01 [3]; [11]) of 5.49. It also gave a pKd (HLA-B*07:02 [7]; [11]) of 5.54 and a pKd (HLA-B*54:01 [10]; [11]) of no more than 4.60.
For FPISPIETV, the pKd (HLA-B*35:01 [2]; [14]) was 5.98, the pKd (HLA-B*07:02 [7]; [14]) was 5.46 and the pIC50 (HLA-B*53:01 [8]; [14]) was 6.60. It also gave a pIC50 (HLA-B*51:01 [6]; [14]) of 6.83 and a pIC50 (HLA-B*54:01 [5]; [14]) of 8.01.
HPEDTGQVF gave a pKd (HLA-B*51:01 [3]; source organism: Homo sapiens) of 5.71, a pKd (HLA-B*54:01 [10]; source organism: Homo sapiens) of no more than 4.60 and a pIC50 (HLA-B*53:01 [8]; source organism: Homo sapiens) of 6.39. It also gave a pIC50 (HLA-B*35:01 [9]) of 6.69.
Sequence SPSCPLERF has a pKd (HLA-B*53:01 [1]; source organism: Homo sapiens) of 5.46, a pKd (HLA-B*51:01 [3]; source organism: Homo sapiens) of 5.72 and a pKd (HLA-B*54:01 [10]; source organism: Homo sapiens) of no more than 4.60. It also gave a pIC50 (HLA-B*35:01 [9]) of 6.42 and a pIC50 (HLA-B*07:02 [4]; source organism: Homo sapiens) of 6.08.
With EPGPVTAQV the pKd (HLA-B*53:01 [1]; source organism: Homo sapiens) was no more than 4.60, the pKd (HLA-B*35:01 [2]; source organism: Homo sapiens) was no more than 4.60 and the pIC50 (HLA-B*51:01 [6]; source organism: Homo sapiens) was 7.55. It also gave a pIC50 (HLA-B*07:02 [4]; source organism: Homo sapiens) of 6.04 and a pIC50 (HLA-B*54:01 [5]; source organism: Homo sapiens) of 6.32.
FPVRPQVPC was tested, and the pKd (HLA-B*53:01 [1]; [15]) was 5.89, the pKd (HLA-B*35:01 [2]; [15]) was 5.89 and the pKd (HLA-B*51:01 [3]; [15]) was 5.89. The pIC50 (HLA-B*07:02 [4]; [15]) was 6.42 and the pIC50 (HLA-B*54:01 [5]; [15]) was 7.18.
For SPATLLLVL, the pKd (HLA-B*54:01 [10]; source organism: Homo sapiens) was 4.90, the pIC50 (HLA-B*53:01 [8]; source organism: Homo sapiens) was 7.64 and the pIC50 (HLA-B*35:01 [9]) was 6.75. The pIC50 (HLA-B*51:01 [6]; source organism: Homo sapiens) was 6.79 and the pIC50 (HLA-B*07:02 [4]; source organism: Homo sapiens) was 8.00.
IPEPEGPDA was tested, and the pKd (HLA-B*53:01 [1]; source organism: Homo sapiens) was no more than 4.60, the pKd (HLA-B*35:01 [2]; source organism: Homo sapiens) was no more than 4.60 and the pKd (HLA-B*51:01 [3]; source organism: Homo sapiens) was 5.26. For the same sequence, the pKd (HLA-B*07:02 [7]; source organism: Homo sapiens) was no more than 4.60 and the pKd (HLA-B*54:01 [10]; source organism: Homo sapiens) was no more than 5.30.
Sequence LPTNASLSF has a pKd (HLA-B*54:01 [10]; source organism: Homo sapiens) of no more than 4.60, a pIC50 (HLA-B*53:01 [8]; source organism: Homo sapiens) of 7.47 and a pIC50 (HLA-B*35:01 [9]) of 6.94. The pIC50 (HLA-B*51:01 [6]; source organism: Homo sapiens) was 6.09.
